What was measured:
[1] = target: T1, human CD40 expressed on cells (human, UniProt P25942 21-277); assay: cell-based or functional assay
[2] = target: T1, human CD40 expressed on cells; assay: cell-based or functional assay; remark: listed apart in the source
[3] = target: T1, human CD40 expressed on cells; assay: cell-based or functional assay; remark: listed apart in the source
[4] = target: T1, human CD40 expressed on cells; assay: cell-based or functional assay; remark: listed apart in the source
[5] = target: T2, human CD40 extracellular domain expressed with a C-terminal myc-myc-hexahistidine tag (human); assay: ELISA, blocks 40 nM hCD40-mmH binding to coated 9His-hCD40L
T2 construct: also called hCD40-MMH; hCD40-mmH
T2 sequence (chain, as listed by the source limits assumed): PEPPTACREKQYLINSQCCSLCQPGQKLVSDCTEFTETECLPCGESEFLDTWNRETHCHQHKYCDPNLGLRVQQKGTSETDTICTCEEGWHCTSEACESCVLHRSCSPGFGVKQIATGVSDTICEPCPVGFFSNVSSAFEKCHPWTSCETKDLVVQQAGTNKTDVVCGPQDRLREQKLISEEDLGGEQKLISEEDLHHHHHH
Description: In the blocking assay, 9His-hCD40L was passively absorbed at a concentration of 5 μg/mL in PBS on a 96-well microtiter plate overnight at 4° C. […] In a separate 96-well microtiter plate, a fixed amount of 40 nM hCD40-mmH was pre-mixed with one of the following antibodies, at concentrations ranging from 977 pM to 1 μM in PBS+0.5% BSA: (1) anti-CD40×CD40 bispecific antibodies (REGN16431, REGN16432, REGN16634, and REGN16335); (2) parental anti-CD40 mAbs (bivalent antibodies comprising 2 fragment antigen-binding [Fab] arms identical to one of anti-CD40 Fab of anti-CD40×CD40 antibodies); (3) anti-CD40×Irrelevant antibodies (bivalent antibodies that incorporate one Fab arm identical to one of anti-CD40 Fab of anti-CD40×CD40 antibodies and another Fab arm specific to an irrelevant antigen); and (4) human IgG4 with Fc mutation isotype control antibodies (REGN7540 and REGN4513). The fixed concentration of hCD40-mmH was selected to be near the concentration (EC₅₀ value) that generated 50% of the maximal binding to the plate-adhered 9His-hCD40L. After one-hour incubation, the antibody-antigen complexes were transferred to the microtiter plate coated with 9His-hCD40L. After one hour incubation at room temperature, the plates were washed, and plate-bound hCD40-mmH protein was detected with horseradish peroxidase (HRP) conjugated goat anti-c-Myc antibody. The plates were then developed using TMB substrate solution (BD Biosciences) according to the manufacturer's recommended procedure and the absorbance at 450 nm (OD₄₅₀) was measured on a SpectraMax i3× plate reader.
Binding data were analyzed using a sigmoidal (four-parameter logistic) dose-response model with GraphPad Prism™ software. […] The percent blocking of tested antibodies at the highest tested concentration ([…]) was calculated based on the formula shown below: […]

[6] = target: T1, human CD40 expressed on cells; assay: cell-based or functional assay; remark: listed apart in the source
[7] = target: T1, human CD40 expressed on cells; assay: cell-based or functional assay; remark: listed apart in the source
[8] = target: T1, human CD40 expressed on cells; assay: cell-based or functional assay; remark: listed apart in the source
[9] = target: T1, human CD40 expressed on cells; assay: cell-based or functional assay; remark: listed apart in the source
[10] = target: T1, human CD40 expressed on cells; assay: cell-based or functional assay; remark: listed apart in the source

T1 sequence (P25942 21-277): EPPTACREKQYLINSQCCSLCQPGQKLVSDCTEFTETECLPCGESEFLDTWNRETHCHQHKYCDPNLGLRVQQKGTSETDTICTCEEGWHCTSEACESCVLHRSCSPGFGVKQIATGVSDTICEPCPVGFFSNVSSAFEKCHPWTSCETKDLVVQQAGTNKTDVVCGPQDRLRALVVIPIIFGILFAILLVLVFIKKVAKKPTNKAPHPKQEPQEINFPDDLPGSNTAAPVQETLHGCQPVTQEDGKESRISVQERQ

B1: REGN16335 (bispecific antibody, human IgG4 S228P, kappa)
heavy 1: EVQLVESGGGLVQPGGSLRLSCAASGFTFSSYAMNWVRQAPGKGLEWVSIISGTIGKTYYADSVKGRFTISRDNSKNTLYLQMNSLRGEDTAVYYCAKDTERDITGSPFDYWGQGTLVTVSSASTKGPSVFPLAPCSRSTSESTAALGCLVKDYFPEPVTVSWNSGALTSGVHTFPAVLQSSGLYSLSSVVTVPSSSLGTKTYTCNVDHKPSNTKVDKRVESKYGPPCPPCPAPGGGGPSVFLFPPKPKDTLMISRTPEVTCVVVDVSQEDPEVQFNWYVDGVEVHNAKTKPREEQFNSTYRVVSVLTVLHQDWLNGKEYKCKVSNKGLPSSIEKTISKAKGQPREPQVYTLPPSQEEMTKNQVSLTCLVKGFYPSDIAVEWESNGQPENNYKTTPPVLDSDGSFFLYSRLTVDKSRWQEGNVFSCSVMHEALHNHYTQKSLSLSLGK
heavy 2: EVQLVESGGGLVQPGGSLRLSCAASGFTFGSYGMAWVRQAPGKGLEWVSAISGSGDYTNYADSVKRRFTISRDNSKNTLYLQMSSLRAEDTAVYYCAKEKTGTTGYLYSGMDVWGQGTTVTVSSASTKGPSVFPLAPCSRSTSESTAALGCLVKDYFPEPVTVSWNSGALTSGVHTFPAVLQSSGLYSLSSVVTVPSSSLGTKTYTCNVDHKPSNTKVDKRVESKYGPPCPPCPAPGGGGPSVFLFPPKPKDTLMISRTPEVTCVVVDVSQEDPEVQFNWYVDGVEVHNAKTKPREEQFNSTYRVVSVLTVLHQDWLNGKEYKCKVSNKGLPSSIEKTISKAKGQPREPQVYTLPPSQEEMTKNQVSLTCLVKGFYPSDIAVEWESNGQPENNYKTTPPVLDSDGSFFLYSRLTVDKSRWQEGNVFSCSVMHEALHNRFTQKSLSLSPGK
light: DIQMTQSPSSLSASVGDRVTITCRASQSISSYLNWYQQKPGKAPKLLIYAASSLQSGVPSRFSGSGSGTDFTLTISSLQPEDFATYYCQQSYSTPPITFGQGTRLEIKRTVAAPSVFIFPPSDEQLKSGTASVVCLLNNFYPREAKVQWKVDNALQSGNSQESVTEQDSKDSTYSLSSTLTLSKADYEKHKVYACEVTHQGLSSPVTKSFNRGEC
With B1 the “IC50, NFkB-luc THP-1, 10 nM hCD40L” value [1] was 0.221 nM, the “Max % activation, NFkB-luc THP-1, no ligand” value [1] was 3% and the “Max % inhibition, NFkB-luc THP-1, 10 nM hCD40L” value [1] was 98%. For the same binder, the “IC50, NFkB-luc Raji, 900 pM hCD40L” value [2] was 4.94e-11 M, the “Max % activation, NFkB-luc Raji, no ligand” value [2] was 9% and the “Max % inhibition, NFkB-luc Raji, 900 pM hCD40L” value [2] was 102%. The “IC50, NFkB-luc Ramos, 500 pM hCD40L” value [3] was 3.86e-11 M, the “Max % activation, NFkB-luc Ramos, no ligand” value [3] was 5% and the “Max % inhibition, NFkB-luc Ramos, 500 pM hCD40L” value [3] was 93%. For the same binder, the “% max blockade relative to no mAb, TNFa, assay #2, donor 1” value [4] was 62.4%, the “% max blockade relative to no mAb, TNFa, assay #2, donor 2” value [4] was 52.5% and the “% Blocking at highest mAb concentration” value [5] was 96%. The “% max blockade relative to no mAb, IL-10, B cells, donor 1” value [6] was 78.5%, the “% max blockade relative to no mAb, IL-10, B cells, donor 2” value [6] was 93.6% and the “% max blockade relative to no mAb, IL-10, B cells, donor 3” value [6] was 89.8%. The “% max blockade relative to no mAb, IL-6, B cells, donor 1” value [7] was 83.2%, the “% max blockade relative to no mAb, IL-6, B cells, donor 2” value [7] was 91.4% and the “% max blockade relative to no mAb, IL-6, B cells, donor 3” value [7] was 91.4%. The “% max blockade relative to no mAb, IL-10, assay #2, donor 1” value [8] was 88.5%, the “% max blockade relative to no mAb, IL-10, assay #2, donor 2” value [8] was 87.8% and the “% max blockade relative to no mAb, TNFa, B cells, donor 1” value [9] was 45%. For the same binder, the “% max blockade relative to no mAb, TNFa, B cells, donor 2” value [9] was 64.7%, the “% max blockade relative to no mAb, TNFa, B cells, donor 3” value [9] was 61.6% and the “% max blockade relative to no mAb, IL-6, assay #2, donor 1” value [10] was 88.4%. For the same binder, the “% max blockade relative to no mAb, IL-6, assay #2, donor 2” value [10] was 87%.

From patent US20250276092A1 (Regeneron, published 2025)
